We go through 1 substance from PMC5389851.

The assay addresses HCMV glycoprotein gO (virion, strain TB40) (human cytomegalovirus strain TB40 (endogenous in virions)).

For the substance “recombinant human PDGFR-α-Fc fusion protein (from UniProt P16234)”, the infection of HFF with wt TB40-luc virus pre-incubated with PDGFR-α-Fc (one hour at 4°C; luciferase assay), residual infection; blocks gH/gL/gO of virions with PDGFR-α on HFF is 0.5%.
